Data taken from patent US20090092595A1, “Suppression of sPLA2-integrin binding for treating an inflammatory condition” (REGENTS OF THE UNIVERSITY OF CALIFORNIA, priority 2007, published 2009).

What was measured:
[1] = target: T1, integrin α4β1 (Homo sapiens, UniProt P05556+P13612); assay: Adhesion of α4-K562 cells (recombinant α4β1) to immobilized sPLA2-IIA; type: cell-based; conditions: compared with mock-transfected K562 cells
T1 construct: K562 cells have endogenous α5β1; expressed in transfected cells; host or cells: K562
T1 sequence (P13612 34-1032): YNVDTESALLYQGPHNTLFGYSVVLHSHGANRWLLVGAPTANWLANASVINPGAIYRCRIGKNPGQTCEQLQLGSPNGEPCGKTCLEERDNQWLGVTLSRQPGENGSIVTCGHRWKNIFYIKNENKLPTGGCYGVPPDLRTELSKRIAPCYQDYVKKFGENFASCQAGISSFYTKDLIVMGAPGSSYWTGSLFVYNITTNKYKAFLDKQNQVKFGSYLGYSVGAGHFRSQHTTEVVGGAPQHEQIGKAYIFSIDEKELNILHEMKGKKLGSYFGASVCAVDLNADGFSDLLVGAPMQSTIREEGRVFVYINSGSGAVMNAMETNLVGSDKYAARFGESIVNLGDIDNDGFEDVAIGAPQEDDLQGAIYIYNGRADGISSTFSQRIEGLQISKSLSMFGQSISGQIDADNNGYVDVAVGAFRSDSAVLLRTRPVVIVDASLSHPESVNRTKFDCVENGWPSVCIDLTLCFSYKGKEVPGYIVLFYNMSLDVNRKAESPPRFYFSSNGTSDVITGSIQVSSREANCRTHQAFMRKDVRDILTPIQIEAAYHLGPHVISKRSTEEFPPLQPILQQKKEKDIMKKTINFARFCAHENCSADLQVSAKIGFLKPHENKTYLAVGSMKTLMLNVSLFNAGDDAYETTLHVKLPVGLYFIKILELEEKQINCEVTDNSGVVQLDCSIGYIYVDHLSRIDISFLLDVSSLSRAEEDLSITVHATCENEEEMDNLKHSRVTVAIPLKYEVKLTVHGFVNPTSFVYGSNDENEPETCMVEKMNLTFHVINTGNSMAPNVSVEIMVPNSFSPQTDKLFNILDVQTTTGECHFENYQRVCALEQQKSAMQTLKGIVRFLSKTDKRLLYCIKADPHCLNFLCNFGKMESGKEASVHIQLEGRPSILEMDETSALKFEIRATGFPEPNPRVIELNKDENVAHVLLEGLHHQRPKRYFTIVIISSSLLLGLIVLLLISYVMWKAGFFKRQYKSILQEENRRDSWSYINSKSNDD
T1 sequence (P05556 21-798): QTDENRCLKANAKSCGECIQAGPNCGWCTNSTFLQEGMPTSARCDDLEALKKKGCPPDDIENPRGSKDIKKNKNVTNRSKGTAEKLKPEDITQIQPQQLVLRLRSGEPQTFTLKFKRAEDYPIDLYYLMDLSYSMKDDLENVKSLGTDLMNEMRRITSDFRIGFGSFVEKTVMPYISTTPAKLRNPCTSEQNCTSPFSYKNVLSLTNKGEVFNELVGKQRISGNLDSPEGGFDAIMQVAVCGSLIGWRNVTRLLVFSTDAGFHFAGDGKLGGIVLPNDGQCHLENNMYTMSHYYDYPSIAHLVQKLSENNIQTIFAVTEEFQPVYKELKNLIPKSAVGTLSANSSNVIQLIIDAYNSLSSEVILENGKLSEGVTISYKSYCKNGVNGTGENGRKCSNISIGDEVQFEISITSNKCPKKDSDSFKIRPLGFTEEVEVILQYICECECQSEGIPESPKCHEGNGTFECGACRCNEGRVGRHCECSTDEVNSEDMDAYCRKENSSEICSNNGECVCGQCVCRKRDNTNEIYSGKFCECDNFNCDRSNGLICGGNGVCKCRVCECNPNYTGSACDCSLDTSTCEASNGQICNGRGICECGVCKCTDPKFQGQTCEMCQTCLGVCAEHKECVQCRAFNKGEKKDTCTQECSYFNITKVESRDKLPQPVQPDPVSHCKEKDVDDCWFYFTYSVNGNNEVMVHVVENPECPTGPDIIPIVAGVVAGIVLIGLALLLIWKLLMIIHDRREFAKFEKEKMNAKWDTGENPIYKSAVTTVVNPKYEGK
Description: (§1) FIG. 5. sPLA2-IIA binding to integrin α4β1. a) Cells expressing recombinant α4β1 adhered to wt sPLA2-IIA better than cells expressing other recombinant integrins. We used transfected K562 cells clonally express different human integrins for adhesion assays. Low background adhesion to BSA was subtracted. […] Wells of 96-well microtiter plate were coated with VCAM-1 and FN-GST, and incubated with U937 cells (1×10^4 cells/plate) in the presence of the increasing concentrations of sPLA2-IIA for 1 h at 37° C. Adherent cells were quantified using endogenous phosphatase after gently rinsing the well to remove unbound cells. Data is shown as means+/−SEM of triplicate experiments. *P=0.0101 and **P<0.0001 by t-test. c) Amino acid sequence in the α4 subunit that is critical for VCAM-1 and CS-1 binding is also critical for sPLA2-IIA binding. CHO cells that clonally express wt or mutant α4 (Irie, A. et al., Embo J, 14(22): 5550-5556 (1995)) were used for adhesion assays. Data is shown as means+/−SEM of triplicate experiments. Similar results were obtained using K562 cells expressing α4 mutants (not shown).
(§2) Other methods We performed docking simulation of interaction between sPLA2-IIA and integrin αvβ3 using the AutoDock3 as previously described (Mori, S. et al., J Biol Chem, in press (2008)). […]

[2] = test system: mock-transfected K562 cells; assay: Proliferation of mock-transfected K562 cells (MTS assay); type: cell-based, human; conditions: serum-starved 48 h, stimulated 48 h
Description: (§3) Cells were serum-starved for 48 h and stimulated with sPLA2-IIA for 48 h. Cell proliferation was determined by MTS assays. Data is shown as means+/−SEM of triplicate experiments. α4- and αvβ3-K562 cells proliferated faster than mock-K562 cells. […] Serum-starved cells were stimulated with wt or mutant sPLA2-IIA (0.5 μg/ml) for 48 h. Data is shown as means+/−SEM of triplicate experiments. α4-K562 and αvβ3-K562 cells grew faster than mock K562 cells with wt and H47Q sPLA2-IIA (*P<0.05 by t-test).
(§4) Cell proliferation and MAP kinase activation K562 cells and human monocytic lymphoma U937 cells were maintained in RPM11640 medium supplemented with 10% FCS. Cells were plated in 96-well plates (1×10^4 cells/well), and serum-starved for 48 h at 37° C. in 5% CO2 atmosphere. Cells were then treated with or without sPLA2-IIA in medium without serum for 48 h. Cell proliferation was determined by MTS assays using the Aqueous Cell Proliferation Assay Kit (Promega). For MAP kinase activation assays, cells were serum starved in RPMI1640 medium supplemented with 0.4% FCS for 24 h, and stimulated with Wt and mutant sPLA2-IIA (0.5 μg/ml) for 10 min at 37° C. ERK1/2 activation was measured as described (Mori, S. et al., J Biol Chem, in press (2008)).

[3] = test system: fibronectin domains 8-11; assay: Adhesion of U937 cells to the cell-binding domain of fibronectin in the presence of sPLA2-IIA; type: cell-based, human; conditions: increasing concentrations of sPLA2-IIA, 1 h, 37° C.
Description: as §1, §2

[4] = target: T2, integrin αvβ3 (Homo sapiens, UniProt P05106+P06756); assay: Surface plasmon resonance study of sPLA2-IIA binding to immobilized soluble integrin αvβ3; conditions: SPR, soluble αvβ3 immobilized on sensor chip, 1 mM Mn2+; listed as human sPLA2-IIA
T2 construct: Recombinant soluble αvβ3 was synthesized as previously described; made in house
T2 sequence (P06756 31-992 limits assumed): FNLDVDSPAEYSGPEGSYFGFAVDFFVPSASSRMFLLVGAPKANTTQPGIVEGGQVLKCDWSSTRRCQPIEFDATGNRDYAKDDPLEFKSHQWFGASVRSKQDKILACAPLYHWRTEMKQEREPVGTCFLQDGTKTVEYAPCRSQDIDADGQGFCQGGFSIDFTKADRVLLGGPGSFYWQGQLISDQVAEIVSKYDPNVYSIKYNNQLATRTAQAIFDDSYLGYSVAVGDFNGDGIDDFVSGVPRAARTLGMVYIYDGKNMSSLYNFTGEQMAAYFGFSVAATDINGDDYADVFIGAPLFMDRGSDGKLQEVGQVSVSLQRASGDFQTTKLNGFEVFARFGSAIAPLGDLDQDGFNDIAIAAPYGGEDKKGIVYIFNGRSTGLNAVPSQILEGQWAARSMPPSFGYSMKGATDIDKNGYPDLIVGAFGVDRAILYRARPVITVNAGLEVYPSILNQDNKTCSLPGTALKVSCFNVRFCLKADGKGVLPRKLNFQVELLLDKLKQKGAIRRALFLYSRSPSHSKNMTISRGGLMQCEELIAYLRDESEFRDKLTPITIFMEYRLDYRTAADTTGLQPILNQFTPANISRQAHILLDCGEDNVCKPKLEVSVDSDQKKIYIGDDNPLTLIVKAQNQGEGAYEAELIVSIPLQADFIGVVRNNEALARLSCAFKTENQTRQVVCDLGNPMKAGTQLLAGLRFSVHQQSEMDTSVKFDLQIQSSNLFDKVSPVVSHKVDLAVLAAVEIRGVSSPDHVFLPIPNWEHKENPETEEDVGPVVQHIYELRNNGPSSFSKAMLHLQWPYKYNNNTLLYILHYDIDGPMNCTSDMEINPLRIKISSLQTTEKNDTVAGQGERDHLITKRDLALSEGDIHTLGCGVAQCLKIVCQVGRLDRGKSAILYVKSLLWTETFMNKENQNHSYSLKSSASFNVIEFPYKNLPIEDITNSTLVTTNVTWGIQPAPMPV
T2 sequence (P05106 27-718 limits assumed): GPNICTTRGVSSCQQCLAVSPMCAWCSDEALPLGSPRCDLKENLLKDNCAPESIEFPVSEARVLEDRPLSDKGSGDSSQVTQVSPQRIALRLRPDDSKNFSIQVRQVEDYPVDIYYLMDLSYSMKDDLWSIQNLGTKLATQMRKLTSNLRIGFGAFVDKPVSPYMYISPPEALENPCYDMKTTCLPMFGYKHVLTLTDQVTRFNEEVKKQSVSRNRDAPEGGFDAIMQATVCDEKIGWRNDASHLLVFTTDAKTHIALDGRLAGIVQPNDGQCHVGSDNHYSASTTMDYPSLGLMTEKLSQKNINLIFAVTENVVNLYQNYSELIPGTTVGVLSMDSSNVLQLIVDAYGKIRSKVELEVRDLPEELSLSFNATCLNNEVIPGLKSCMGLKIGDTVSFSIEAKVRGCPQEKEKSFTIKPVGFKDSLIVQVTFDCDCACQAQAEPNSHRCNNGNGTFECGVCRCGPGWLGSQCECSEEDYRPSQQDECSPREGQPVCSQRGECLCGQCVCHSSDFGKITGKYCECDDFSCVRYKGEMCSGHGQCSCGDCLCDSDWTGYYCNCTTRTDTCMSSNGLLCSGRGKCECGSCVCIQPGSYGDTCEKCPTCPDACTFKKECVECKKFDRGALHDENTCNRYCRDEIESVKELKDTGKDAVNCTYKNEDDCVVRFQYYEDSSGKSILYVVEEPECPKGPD
Description: Surface plasmon resonance study Recombinant soluble integrin αvβ3 was immobilized to Biacore Sensor chip CM5 (Biacore, Piscataway, N.J.) by the standard amine coupling method. Two-fold serial diluted sPLA2-IIA and its mutants R74E/R100E (ranging from 2 nM to 500 pM) and H47Q (ranging from 4 nM to 1 nM) in running buffer HBS-P buffer containing 1 mM of Mn^2+ were injected for 3 min at the flow rate of 50 μL/min. Then the sensor chip was washed with the running buffer alone at the same flow rate for another 5 min (the dissociation phase). Two consecutive one-minute injections of 0.5 M, pH 8 EDTA solution at the same flow rate were used to regenerate the chip for another cycle of injection. The resonance unit elicited from the reference flow cell was subtracted from the resonance unit elicited from the integrin flow cell to eliminate the non-specific protein-flow cell interaction and the bulk refractive index effect. The recorded binding curves were fitted with the “1:1 binding with drifting baseline model” by using the Biaevaluation Version 4.1.

[5] = target: T3, soluble integrin αvβ3 (Homo sapiens, UniProt P05106+P06756); assay: Binding of soluble αvβ3 to immobilized sPLA2-IIA (ELISA-type assay); conditions: immobilized protein, 20 μg/ml coating
T3 construct: Recombinant soluble αvβ3 was synthesized as previously described; made in house
T3 sequence (P06756 31-992 limits assumed): as the sequence (P06756 31-992 limits assumed) above
T3 sequence (P05106 27-718 limits assumed): as the sequence (P05106 27-718 limits assumed) above
Description: Binding of soluble αvβ3 to immobilized sPLA2-IIA sPLA2-IIA was immobilized to wells of 96 well microtiter plates and the remaining protein-binding sites were blocked by BSA as described (Mori, S. et al., J Biol Chem, 283:18066-18075 (2008)). Soluble recombinant αvβ3 at 5 μg/ml in Hepes-Tyrodes buffer supplemented with 1 mM MnCl2 was added to the well and incubated for 2 h. Bound αvβ3 was measured using anti-integrin β3 (mAb AV-10) followed by HRP-conjugated goat anti-mouse IgG and peroxidase substrates.

[6] = test system: α4-K562 cells; assay: Proliferation of α4-K562 cells (MTS assay); type: cell-based, human; conditions: serum-starved 48 h, stimulated 48 h
Description: as §3, §4

B1: wt sPLA2-IIA: Secretory phospholipase A2 group IIA, wild type, recombinant from bacteria BL21, refolded (protein)
chain: NLVNFHRMIKLTTGKEAALSYGFYGCHCGVGGRGSPKDATDRCCVTHDCCYKRLEKRGCGTKFLSYKFSNSGSRITCAKQDSCRSQLCECDKAAATCFARNKTTYNKKYQYYSNKHCRGSTPRC
modifications: left off: small tags and cut ends
- adhesion of α4-K562 cells to immobilized wt sPLA2-IIA [1]: better than mock-transfected K562 cells
- proliferation of mock-transfected K562 cells [2]: did not induce proliferation
- cell adhesion to fibronectin domains 8-11 [3]: did not suppress cell adhesion
- Kd [4]: 200 nM
- binding to soluble αvβ3 [5]: bound
- proliferation of α4-K562 cells [6]: induced proliferation
